Results: PMC9486808 (ACS Chemical Biology, 2022)
No end group written: not given here.

Molecular target: Recombinant soluble trimeric H1 HA ectodomain of A/California/04/2009 (H1N1) (Influenza A virus A/California/04/2009 …)
Experiment: fluorescence polarisation
Details: both partners purified

B1: Fluorescein-labeled macrocyclic peptide L2 (peptide)
chain: YWHKNKYVLTYSCLFAA
modifications: thioether (positions not given here); not fully specified (N-terminus, bridges); also: fluorescein (FAM) label, position not given here
Which Kd does the source give for B1 here?
Its Kd is 2.4 nM.

B2: Fluorescein-labeled macrocyclic peptide S3 (peptide)
chain: YLKIYWSKIHGLVSEWC
modifications: thioether (positions not given here); not fully specified (N-terminus, bridges); also: fluorescein (FAM) label, position not given here
B2 was tested. Which Kd did it give?
The Kd was at most 1 nM.

B3: Fluorescein-labeled macrocyclic peptide S5 (peptide)
chain: YVLFRWDHGTLATHWVC
modifications: thioether (positions not given here); not fully specified (N-terminus, bridges); also: fluorescein (FAM) label, position not given here
For B3, which Kd is on record?
Its Kd is at most 1 nM.

B4: Fluorescein-labeled macrocyclic peptide L4 (peptide)
chain: YRWVWTSFFSEPYFVVC
modifications: thioether (positions not given here); not fully specified (N-terminus, bridges); also: fluorescein (FAM) label, position not given here
With B4 as the binder, how does the Kd read?
Its Kd is at most 1 nM.
